The values that follow come from patent US20160032001A1 (APEXIGEN, published 2016).

One assay addresses T1, human RANKL protein (human, UniProt O14788 140-317, limits assumed).
T1 sequence (looked up): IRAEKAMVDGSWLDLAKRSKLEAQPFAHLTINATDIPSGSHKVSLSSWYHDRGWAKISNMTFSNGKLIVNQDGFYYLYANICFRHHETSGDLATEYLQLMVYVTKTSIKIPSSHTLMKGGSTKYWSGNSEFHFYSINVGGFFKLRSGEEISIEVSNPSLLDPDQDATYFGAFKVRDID
As to the kind of experiment: competition ELISA: RANKL (0.5 ug/ml) pre-incubated with the antibody, then binding to coated human RANK (8 ug/ml) detected; blocked partner RANK.

The target of assay [1] is T2, RANKL expressed on the surface of 293 cells (UniProt O14788 1-317, limits assumed).
T2 construct: whole, on cells; also called RANKL-transfected 293 cells; cells expressing RANKL
T2 sequence (looked up): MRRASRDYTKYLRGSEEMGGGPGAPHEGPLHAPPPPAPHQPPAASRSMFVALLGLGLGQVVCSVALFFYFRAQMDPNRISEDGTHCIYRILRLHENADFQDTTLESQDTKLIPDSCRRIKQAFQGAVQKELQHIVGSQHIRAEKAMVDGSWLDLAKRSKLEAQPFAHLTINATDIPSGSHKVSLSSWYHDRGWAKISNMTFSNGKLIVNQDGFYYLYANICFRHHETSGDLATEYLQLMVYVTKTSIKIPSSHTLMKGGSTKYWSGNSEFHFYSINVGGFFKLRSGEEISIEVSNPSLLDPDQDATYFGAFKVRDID
The assay can be described thus: flow cytometry (MFI) on RANKL-transfected 293 cells. Background: Flow cytometry measures light scatter and fluorescence of single cells or particles in a stream.

B1: clone 476 rabbit anti-RANKL antibody (antibody, V domains shown)
VH: QSLEESGGGLVQPEGSPTLTCTAYLIDFSRYGYMCWVRQAPGKGLEWIGCIHAGRSGRTYYANWAKGRFTISKTSSTTVTLQMTSLTAADTATYFCAKSGDSYVGYFALWGPGTLVTVSS
VL: DIVMTQTPASVEAAVGGTVTIKCQASENIYNYLSWYQQKPGQPPKLLIYEASKLASGVSSRFKGSGSGTEFTLTISDLECADAATYYCQSYYDVTSHSYDNPFGGGTEVVVS
Take B1: the IC50 (usually the concentration at which inhibition is half-maximal) with human RANKL protein came to 0.0301 µg/mL. The response in assay [1] was half-maximal at 0.0632 µg/mL (EC50).
